Data reported in patent US20070192880A1, “Horming response element binding transregulators” (UNIVERSITY OF ROCHESTER, priority 2003, published 2007).

Experiments:
[1] = tested on: PRE 5′-AGAACAnnnTGTTCT-3′; assay: luciferase reporter bearing a single PRE, COS-1 cells; format: cell-based, African green monkey; details: PR with 10^−8 M Progesterone
Experimental: (§1) An ERE drives the expression of the firefly luciferase cDNA as the reporter enzyme from the TATA box promoter. […] The reporter vector contains no (TATA) or two ERE half sites with 0, 1, 2, 3, 4, 5, 10 or 15 non-specific central nucleotides. FIGS. 4C and 4D show COS-1 cells were transfected with expression vectors bearing none (V), RXRα (Panel C) PR (Panel D), ERα, (VP16)2-CDC-(p65)2 or (p65)2-CDC-(VP16)2 cDNA. Cells were treated with 10^−6 M 9-cis-retinoic acid for RXRα, 10^−8 M Progesterone for PR or 10^−9 M E2 for ERα for 24 h. The TATA box reporter vector bears one consensus RXRE 5′-AGGTCAnAGGTCA-′3 (Panel C) or PRE 5′-AGAACAnnnTGTTCT-3′ (panel D) that drives the expression of the reporter firefly luciferase cDNA. Normalized luciferase values represented as fold change are the mean±SEM of three independent experiments performed in duplicate.
(§2) Culturing and transfection of the mammalian COS-1 and […] MDA-MB-231 cells were described previously (Muyan, M. et al. (2001) Mol Cell Endocrinol 182,249-263; Yi, P. et al. (2002) Mol Endocrinol 16, 1810-1827), with the exceptions that 48 well cell culture plates were used and Trans-IT LTI transfection reagent (Mirus Corp., Madison, Wis.). Luciferase assays were performed with a Dual Luciferase Assay kit (Promega) according to the manufacture's recornmendations. […]

[2] = tested on: consensus RXRE 5′-AGGTCAnAGGTCA-3′; assay: luciferase reporter bearing one RXRE, COS-1 cells; format: cell-based, African green monkey; details: RXRα with 10^−6 M 9-cis retinoic acid
Experimental: as §1, §2

Molecule	reporter enzyme activity from a single PRE [1]	luciferase activity from a reporter plasmid bearing one RXRE [2]
Progesterone Receptor (protein, UniProt P06401 1-933, looked up, expressed from vector, treated with Progesterone) Progesterone receptor: MTELKAKGPRAPHVAGGPPSPEVGSPLLCRPAAGPFPGSQTSDTLPEVSAIPISLDGLLFPRPCQGQDPSDEKTQDQQSLSDVEGAYSRAEATRGAGGSSSSPPEKDSGLLDSVLDTLLAPSGPGQSQPSPPACEVTSSWCLFGPELPEDPPAAPATQRVLSPLMSRSGCKVGDSSGTAAAHKVLPRGLSPARQLLLPASESPHWSGAPVKPSPQAAAVEVEEEDGSESEESAGPLLKGKPRALGGAAAGGGAAAVPPGAAAGGVALVPKEDSRFSAPRVALVEQDAPMAPGRSPLATTVMDFIHVPILPLNHALLAARTRQLLEDESYDGGAGAASAFAPPRSSPCASSTPVAVGDFPDCAYPPDAEPKDDAYPLYSDFQPPALKIKEEEEGAEASARSPRSYLVAGANPAAFPDFPLGPPPPLPPRATPSRPGEAAVTAAPASASVSSASSSGSTLECILYKAEGAPPQQGPFAPPPCKAPGASGCLLPRDGLPSTSASAAAAGAAPALYPALGLNGLPQLGYQAAVLKEGLPQVYPPYLNYLRPDSEASQSPQYSFESLPQKICLICGDEASGCHYGVLTCGSCKVFFKRAMEGQHNYLCAGRNDCIVDKIRRKNCPACRLRKCCQAGMVLGGRKFKKFNKVRVVRALDAVALPQPVGVPNESQALSQRFTFSPGQDIQLIPPLINLLMSIEPDVIYAGHDNTKPDTSSSLLTSLNQLGERQLLSVVKWSKSLPGFRNLHIDDQITLIQYSWMSLMVFGLGWRSYKHVSGQMLYFAPDLILNEQRMKESSFYSLCLTMWQIPQEFVKLQVSQEEFLCMKVLLLLNTIPLEGLRSQTQFEEMRSSYIRELIKAIGLRQKGVVSSSQRFYQLTKLLDNLHDLVKQLHLYCLNTFIQSRALSVEFPEMMSEVIAAQLPKILAGMVKPLLFHKK	enhanced the reporter enzyme activity	–
Retinoic X Receptor α (protein, UniProt P19793 1-462, looked up, treated with 9-cis retinoic acid, expressed from vector, treated with 9-cis retinoic acid) Retinoic acid receptor …: MDTKHFLPLDFSTQVNSSLTSPTGRGSMAAPSLHPSLGPGIGSPGQLHSPISTLSSPINGMGPPFSVISSPMGPHSMSVPTTPTLGFSTGSPQLSSPMNPVSSSEDIKPPLGLNGVLKVPAHPSGNMASFTKHICAICGDRSSGKHYGVYSCEGCKGFFKRTVRKDLTYTCRDNKDCLIDKRQRNRCQYCRYQKCLAMGMKREAVQEERQRGKDRNENEVESTSSANEDMPVERILEAELAVEPKTETYVEANMGLNPSSPNDPVTNICQAADKQLFTLVEWAKRIPHFSELPLDDQVILLRAGWNELLIASFSHRSIAVKDGILLATGLHVHRNSAHSAGVGAIFDRVLTELVSKMRDMQMDKTELGCLRAIVLFNPDSKGLSNPAEVEALREKVYASLEAYCKHKYPEQPGRFAKLLLRLPALRSIGLKCLEHLFFFKLIGDTPIDTFLMEMLEAPHQMT	–	augmented the enzyme activity
